Test results taken from paper PMC2946844.

T1: 1xMBD-GFP (UniProt Q9Z2E2 1-75)
T1 sequence: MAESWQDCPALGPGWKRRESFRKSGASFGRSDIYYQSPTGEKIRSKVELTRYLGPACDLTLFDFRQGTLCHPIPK


What follows are binders tested against T1, 1xMBD-GFP (assay: SPR).

| Binder | Kd |
| --- | --- |
| o_m_m/m_o_o (dsDNA, strand 1 5mC10,5mC17; strand 2 5mC17) DNA 1: TTTGCGGTCCGCTGCCCGACCC DNA 2: GGGTCGGGCAGCGGACCGCAAA | 3.47 ± 0.05 µM |
| o_o_o/o_o_o (dsDNA) DNA 1: TTTGCGGTCCGCTGCCCGACCC DNA 2: GGGTCGGGCAGCGGACCGCAAA | 72 ± 5 µM |
| o_o_m/m_o_m (dsDNA, strand 1 5mC17; strand 2 5mC5,5mC17) DNA 1: TTTGCGGTCCGCTGCCCGACCC DNA 2: GGGTCGGGCAGCGGACCGCAAA | 0.179 ± 0.001 µM |
| o_o_o/m_o_m (dsDNA, strand 2 5mC5,5mC17) DNA 1: TTTGCGGTCCGCTGCCCGACCC DNA 2: GGGTCGGGCAGCGGACCGCAAA | 5.7 ± 0.3 µM |
| o_o_m/o_o_o (dsDNA, strand 1 5mC17) DNA 1: TTTGCGGTCCGCTGCCCGACCC DNA 2: GGGTCGGGCAGCGGACCGCAAA | 6.8 ± 0.1 µM |
| o_o_o/o_m_o (dsDNA, strand 2 5mC12) DNA 1: TTTGCGGTCCGCTGCCCGACCC DNA 2: GGGTCGGGCAGCGGACCGCAAA | 12 ± 1 µM |
| o_m_m/o_m_o (dsDNA, strand 1 5mC10,5mC17; strand 2 5mC12) DNA 1: TTTGCGGTCCGCTGCCCGACCC DNA 2: GGGTCGGGCAGCGGACCGCAAA | 0.271 ± 0.005 µM |
| m_o_o/o_m_o (dsDNA, strand 1 5mC5; strand 2 5mC12) DNA 1: TTTGCGGTCCGCTGCCCGACCC DNA 2: GGGTCGGGCAGCGGACCGCAAA | 5.5 ± 0.9 µM |
| o_m_o/o_m_o (dsDNA, strand 1 5mC10; strand 2 5mC12) DNA 1: TTTGCGGTCCGCTGCCCGACCC DNA 2: GGGTCGGGCAGCGGACCGCAAA | 0.244 ± 0.002 µM |
| m_o_o/o_m_m (dsDNA, strand 1 5mC5; strand 2 5mC5,5mC12) DNA 1: TTTGCGGTCCGCTGCCCGACCC DNA 2: GGGTCGGGCAGCGGACCGCAAA | 3.67 ± 0.03 µM |
| o_m_o/m_o_m (dsDNA, strand 1 5mC10; strand 2 5mC5,5mC17) DNA 1: TTTGCGGTCCGCTGCCCGACCC DNA 2: GGGTCGGGCAGCGGACCGCAAA | 8.6 ± 0.1 µM |
| m_o_o*/o_o_o (dsDNA, strand 1 5mC9) DNA 1: GTAGTTTGCGGTCCGCTGCCCGACC DNA 2: GGGTCGGGCAGCGGACCGCAAA | 13.1 ± 0.3 µM |
| m_o_o/m_m_m (dsDNA, strand 1 5mC5; strand 2 5mC5,5mC12,5mC17) DNA 1: TTTGCGGTCCGCTGCCCGACCC DNA 2: GGGTCGGGCAGCGGACCGCAAA | 2.2 ± 0.02 µM |
| o_m_o/m_m_m (dsDNA, strand 1 5mC10; strand 2 5mC5,5mC12,5mC17) DNA 1: TTTGCGGTCCGCTGCCCGACCC DNA 2: GGGTCGGGCAGCGGACCGCAAA | 0.398 ± 0.002 µM |
| o_m_m/o_m_m (dsDNA, strand 1 5mC10,5mC17; strand 2 5mC5,5mC12) DNA 1: TTTGCGGTCCGCTGCCCGACCC DNA 2: GGGTCGGGCAGCGGACCGCAAA | 0.139 ± 0.007 µM |
| m_o_o*/m_o_m (dsDNA, strand 1 5mC9; strand 2 5mC5,5mC17) DNA 1: GTAGTTTGCGGTCCGCTGCCCGACC DNA 2: GGGTCGGGCAGCGGACCGCAAA | 0.564 ± 0.004 µM |
| o_m_m/o_o_o (dsDNA, strand 1 5mC10,5mC17) DNA 1: TTTGCGGTCCGCTGCCCGACCC DNA 2: GGGTCGGGCAGCGGACCGCAAA | 3.09 ± 0.02 µM |
| o_o_m/o_m_o (dsDNA, strand 1 5mC17; strand 2 5mC12) DNA 1: TTTGCGGTCCGCTGCCCGACCC DNA 2: GGGTCGGGCAGCGGACCGCAAA | 2.3 ± 0.06 µM |
| o_o_o_o/o_o_o_o (dsDNA) DNA 1: GAAGTCAACAGGACGGACGCCGCGCAA DNA 2: CTCTTTCTTTGCGCGGCGTCCGTCCTGTTGACTTCCTCT | 37 ± 2 µM |
| o_o_o_o/o_m_m_o (dsDNA, strand 2 5mC14,5mC17) DNA 1: GAAGTCAACAGGACGGACGCCGCGCAA DNA 2: CTCTTTCTTTGCGCGGCGTCCGTCCTGTTGACTTCCTCT | 3.19 ± 0.03 µM |
| o_o_m_o/o_m_m_o (dsDNA, strand 1 5mC21; strand 2 5mC14,5mC17) DNA 1: GAAGTCAACAGGACGGACGCCGCGCAA DNA 2: CTCTTTCTTTGCGCGGCGTCCGTCCTGTTGACTTCCTCT | 0.158 ± 0.003 µM |
| o_m_o_o/o_o_m_o (dsDNA, strand 1 5mC18; strand 2 5mC14) DNA 1: GAAGTCAACAGGACGGACGCCGCGCAA DNA 2: CTCTTTCTTTGCGCGGCGTCCGTCCTGTTGACTTCCTCT | 3.12 ± 0.04 µM |
| m_o_o_o/o_o_m_o (dsDNA, strand 1 5mC14; strand 2 5mC14) DNA 1: GAAGTCAACAGGACGGACGCCGCGCAA DNA 2: CTCTTTCTTTGCGCGGCGTCCGTCCTGTTGACTTCCTCT | 3.51 ± 0.03 µM |
| o_o_o_m/o_o_m_o (dsDNA, strand 1 5mC23; strand 2 5mC14) DNA 1: GAAGTCAACAGGACGGACGCCGCGCAA DNA 2: CTCTTTCTTTGCGCGGCGTCCGTCCTGTTGACTTCCTCT | 2.65 ± 0.03 µM |
| m_o_o_o/o_o_o_o (dsDNA, strand 1 5mC14) DNA 1: GAAGTCAACAGGACGGACGCCGCGCAA DNA 2: CTCTTTCTTTGCGCGGCGTCCGTCCTGTTGACTTCCTCT | 16.8 ± 0.5 µM |
| o_m_o_o/o_o_m_m (dsDNA, strand 1 5mC18; strand 2 5mC12,5mC14) DNA 1: GAAGTCAACAGGACGGACGCCGCGCAA DNA 2: CTCTTTCTTTGCGCGGCGTCCGTCCTGTTGACTTCCTCT | 2.4 ± 0.04 µM |

| Binder | Kd |
| --- | --- |
| o_o_o_m/o_m_m_o (dsDNA, strand 1 5mC23; strand 2 5mC14,5mC17) DNA 1: GAAGTCAACAGGACGGACGCCGCGCAA DNA 2: CTCTTTCTTTGCGCGGCGTCCGTCCTGTTGACTTCCTCT | 1.94 ± 0.02 µM |
| o_o_o_o/o_o_m_o (dsDNA, strand 2 5mC14) DNA 1: GAAGTCAACAGGACGGACGCCGCGCAA DNA 2: CTCTTTCTTTGCGCGGCGTCCGTCCTGTTGACTTCCTCT | 3.66 ± 0.05 µM |
| m_o_o_o/o_o_m_m (dsDNA, strand 1 5mC14; strand 2 5mC12,5mC14) DNA 1: GAAGTCAACAGGACGGACGCCGCGCAA DNA 2: CTCTTTCTTTGCGCGGCGTCCGTCCTGTTGACTTCCTCT | 3.11 ± 0.03 µM |
| o_m_o_o/o_o_o_o (dsDNA, strand 1 5mC18) DNA 1: GAAGTCAACAGGACGGACGCCGCGCAA DNA 2: CTCTTTCTTTGCGCGGCGTCCGTCCTGTTGACTTCCTCT | 14.7 ± 0.4 µM |
| o_o_o_m/o_o_o_o (dsDNA, strand 1 5mC23) DNA 1: GAAGTCAACAGGACGGACGCCGCGCAA DNA 2: CTCTTTCTTTGCGCGGCGTCCGTCCTGTTGACTTCCTCT | 7.6 ± 0.2 µM |
| o_o_m_o/o_o_o_o (dsDNA, strand 1 5mC21) DNA 1: GAAGTCAACAGGACGGACGCCGCGCAA DNA 2: CTCTTTCTTTGCGCGGCGTCCGTCCTGTTGACTTCCTCT | 5.86 ± 0.09 µM |
| o_o_m_o/o_o_m_o (dsDNA, strand 1 5mC21; strand 2 5mC14) DNA 1: GAAGTCAACAGGACGGACGCCGCGCAA DNA 2: CTCTTTCTTTGCGCGGCGTCCGTCCTGTTGACTTCCTCT | 0.106 ± 0.001 µM |
| o_m_o_o/o_m_m_o (dsDNA, strand 1 5mC18; strand 2 5mC14,5mC17) DNA 1: GAAGTCAACAGGACGGACGCCGCGCAA DNA 2: CTCTTTCTTTGCGCGGCGTCCGTCCTGTTGACTTCCTCT | 0.315 ± 0.004 µM |
| o_o_o_m/o_o_m_m (dsDNA, strand 1 5mC23; strand 2 5mC12,5mC14) DNA 1: GAAGTCAACAGGACGGACGCCGCGCAA DNA 2: CTCTTTCTTTGCGCGGCGTCCGTCCTGTTGACTTCCTCT | 0.281 ± 0.007 µM |
| o_o_o_o/o_o_m_m (dsDNA, strand 2 5mC12,5mC14) DNA 1: GAAGTCAACAGGACGGACGCCGCGCAA DNA 2: CTCTTTCTTTGCGCGGCGTCCGTCCTGTTGACTTCCTCT | 4.5 ± 0.1 µM |
| m_o_o_o/o_m_m_o (dsDNA, strand 1 5mC14; strand 2 5mC14,5mC17) DNA 1: GAAGTCAACAGGACGGACGCCGCGCAA DNA 2: CTCTTTCTTTGCGCGGCGTCCGTCCTGTTGACTTCCTCT | 2.4 ± 0.09 µM |
| o_o_m_o/o_o_m_m (dsDNA, strand 1 5mC21; strand 2 5mC12,5mC14) DNA 1: GAAGTCAACAGGACGGACGCCGCGCAA DNA 2: CTCTTTCTTTGCGCGGCGTCCGTCCTGTTGACTTCCTCT | 0.156 ± 0.002 µM |
| o_o_m/o_m_m (dsDNA, strand 1 5mC17; strand 2 5mC5,5mC12) DNA 1: TTTGCGGTCCGCTGCCCGACCC DNA 2: GGGTCGGGCAGCGGACCGCAAA | 0.116 ± 0.001 µM |
| m_o_o/m_o_m (dsDNA, strand 1 5mC5; strand 2 5mC5,5mC17) DNA 1: TTTGCGGTCCGCTGCCCGACCC DNA 2: GGGTCGGGCAGCGGACCGCAAA | 2.08 ± 0.02 µM |
| o_m_m/m_m_m (dsDNA, strand 1 5mC10,5mC17; strand 2 5mC5,5mC12,5mC17) DNA 1: TTTGCGGTCCGCTGCCCGACCC DNA 2: GGGTCGGGCAGCGGACCGCAAA | 0.181 ± 0.001 µM |
| o_m_o/o_o_o (dsDNA, strand 1 5mC10) DNA 1: TTTGCGGTCCGCTGCCCGACCC DNA 2: GGGTCGGGCAGCGGACCGCAAA | 10 ± 0.1 µM |
| m_o_o*/m_m_m (dsDNA, strand 1 5mC9; strand 2 5mC5,5mC12,5mC17) DNA 1: GTAGTTTGCGGTCCGCTGCCCGACC DNA 2: GGGTCGGGCAGCGGACCGCAAA | 0.534 ± 0.004 µM |
| o_o_o/m_m_m (dsDNA, strand 2 5mC5,5mC12,5mC17) DNA 1: TTTGCGGTCCGCTGCCCGACCC DNA 2: GGGTCGGGCAGCGGACCGCAAA | 4.6 ± 0.2 µM |
| m_o_o*/o_m_o (dsDNA, strand 1 5mC9; strand 2 5mC12) DNA 1: GTAGTTTGCGGTCCGCTGCCCGACC DNA 2: GGGTCGGGCAGCGGACCGCAAA | 5.41 ± 0.05 µM |
| o_o_o/o_m_m (dsDNA, strand 2 5mC5,5mC12) DNA 1: TTTGCGGTCCGCTGCCCGACCC DNA 2: GGGTCGGGCAGCGGACCGCAAA | 4.28 ± 0.05 µM |
| m_o_o/o_o_o (dsDNA, strand 1 5mC5) DNA 1: TTTGCGGTCCGCTGCCCGACCC DNA 2: GGGTCGGGCAGCGGACCGCAAA | 35 ± 1 µM |
| o_m_m/m_o_m (dsDNA, strand 1 5mC10,5mC17; strand 2 5mC5,5mC17) DNA 1: TTTGCGGTCCGCTGCCCGACCC DNA 2: GGGTCGGGCAGCGGACCGCAAA | 0.169 ± 0.002 µM |
| o_o_m/m_o_o (dsDNA, strand 1 5mC17; strand 2 5mC17) DNA 1: TTTGCGGTCCGCTGCCCGACCC DNA 2: GGGTCGGGCAGCGGACCGCAAA | 5.97 ± 0.08 µM |
| o_m_o/o_m_m (dsDNA, strand 1 5mC10; strand 2 5mC5,5mC12) DNA 1: TTTGCGGTCCGCTGCCCGACCC DNA 2: GGGTCGGGCAGCGGACCGCAAA | 0.252 ± 0.002 µM |
| m_o_o*/o_m_m (dsDNA, strand 1 5mC9; strand 2 5mC5,5mC12) DNA 1: GTAGTTTGCGGTCCGCTGCCCGACC DNA 2: GGGTCGGGCAGCGGACCGCAAA | 3.74 ± 0.06 µM |
